{"source": "the nanobody polyreactivity screen of Harvey et al. (2022)"}
{"assay": "yeast display, Sf9 membrane polyspecificity reagent, FACS + sequencing; frameworks hold sequencing errors", "outline": "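Nanobodies from a synthetic yeast display library (Saccharomyces cerevisiae BJ5465), induced 36–48 hours with galactose, were stained 1 hour at 4 °C with 10% biotinylated, detergent-solubilized Sf9 membrane reagent, enriched on streptavidin microbeads, then FACS-sorted. Anti-HA (expression) and streptavidin (reagent binding) fluorescence set low and high (top ~1%) gates. Polyreactivity labels come from the gate of origin. Genes were colony-PCR amplified, MiSeq 2 × 250 sequenced and filtered by CDR length.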"}
{"sequence": "QVQIVESGGGLVQAGGSLRLSCDASGSIFGRNAMGWYRQAPGKERELVAAITRTGGRTYYPDSVKGRITISRDNAKNTVYLQMNSLKPEDTEVKYCARYGGYWSLKYDYWGQGTQVTVSS", "polyreactivity (PSR sort gate)": "high polyreactivity"}
{"sequence": "QVQIVESGGGLVQAGGSLRLSCPASGSTFTRYPMGWYSQAPGKERELVAAISYSGSSTYYADSVKGRFTISRDNAKNTVYLEMICLIPEDTAVYYCAAGKQAPAVNYGYYYWGQCTQVTVSS", "polyreactivity (PSR sort gate)": "low polyreactivity"}
{"sequence": "QVQIVESGGGLVQAGGSLRLSFAASGRIFYNYALGWYRQAPGKERELVAAISGSGGSTYYADSVKGRFTISRDNAKNTVYLQMNSLKPEVTAVYYCSTSGPQYYSRNFDYWGQGTQVTVSS", "polyreactivity (PSR sort gate)": "low polyreactivity"}
{"sequence": "QVQIVESGGGLVQAGGSLSLSCAASGRTFAGNAMGWYRQAPGKEMELVASISSSGGRTYYADSVKGRFTISRDNAKNTVYLQMISLKPEDTAVYYCAARGGYVSTWTRFSKYNYWGQGTQVTVSS", "polyreactivity (PSR sort gate)": "high polyreactivity"}
{"sequence": "QVQIVESGGGLVQAGGSLSLSCAASGSILDQYAMGWYRQAPGKERELVAAITAIGDSTYYADSLKGRFTISRDNAKYTVYLQMYSLKPEVTAVYYCAGTYVGSDGGDYWGQGTQVTVAS", "polyreactivity (PSR sort gate)": "low polyreactivity"}
{"sequence": "QVQIVESGGGLVQAGGSLSLSCADYGSTFYHNVMGWYRQAPGKERELVASIDTGDSTNYADSVKGRFTISRDNAKNTVYLQMNSLKPEYTAVYYCNADSYPALNKRGYDYWGQGTQVTVSS", "polyreactivity (PSR sort gate)": "low polyreactivity"}
{"sequence": "QVQIVESGGGLVQAGGTLRLSCAPSGRTFAPNTMGWYRHAPGKEREFVARINSRGGSTYADSVKGRFTISRDNAKNTVYLQMNSLKPEDTAVYYCARKPYRGVYRYDYWGQGTQVTVSS", "polyreactivity (PSR sort gate)": "high polyreactivity"}
{"sequence": "QVQIVESGGGLVQAGVSLRLSCAASGSTFETNTMGWYRKAPGKERELVAAITTGGRTYYADSLKGRFSISRDNAKNNVYLQMNSLKPEDTAVYYCAVAYWNRQSLFRMYYWGQGTQVTVSS", "polyreactivity (PSR sort gate)": "high polyreactivity"}
{"sequence": "QVQIVESGGGLVQAGVSLRLSCAPSGSTFHLNAMGWYRQAPGKERELVAAISRGGSTYYADSVKGRFTISRDNAKNTVYLQMNRLKPEDTAVYYCNAVWSNFRLGYDYWGQGTQVNVSS", "polyreactivity (PSR sort gate)": "high polyreactivity"}
{"sequence": "QVQIVESGGGLVQARGSLLLSSAASGFTSNYYALGWYRHAPGKESELVAAITTGGSTHYADSVKGRFTFSRDNAQNTVYLQLNSLKQVDSAVYYCAAGTNRQQQRYFHNGGYYQYNYWGQGTQVTVSS", "polyreactivity (PSR sort gate)": "low polyreactivity"}
{"sequence": "QVQIVESGGGVVQAGGSLRLICAASGSTFNPYAMGSYRQAPGKERELVAAIRGRSGRTYYADSVKGRFTISRDNAKNTVYLQMTSLIPEDTAVYYCAARFSEYRTHPSEVYYWGQGTQVTVSS", "polyreactivity (PSR sort gate)": "high polyreactivity"}
{"sequence": "QVQIVESGGRIVQAGGSIRLSCAASGSTFLFYAMGRSRQAPGKERQLVAAISYSGGSTFYADSVKGRFTISRDNAKNTVYLQMNSLKPEDTAVYYCAAESYSYGFTHEYWGQGTQETVSS", "polyreactivity (PSR sort gate)": "high polyreactivity"}
{"sequence": "QVQIVESGRGLVQAGGSLRLSCAASGRIFYNDLMGWYRQAPGKERELVASISTGGTTYYSDSVKGRFTISRDNAKNTVYLQMNSLKPEDTAVYYCNAGLFYAPPFYTMDYWGQGTQVTVSS", "polyreactivity (PSR sort gate)": "low polyreactivity"}
{"sequence": "QVQIVESVGGLLQAGGSLRLSCAASGRIFQGYAMGWYRQAPGKERELVASISSCGRTYYADSVKGRFTISRDNAKNTVYLQFNSLTPEDTAVYYCAKRPQFFWSNPYDYWGLGTQVTVSS", "polyreactivity (PSR sort gate)": "high polyreactivity"}
{"sequence": "QVQIVETGGGLVQAGGSLGLSCAASGSNFGGNTMPCYRQAPGIERALVAAISRSGGSTYYADSVKGRFTISRDIAQNSVYVQMNSLKPEDTAVYYCNRKQAGQAQGYDYWGLGTQVTVSS", "polyreactivity (PSR sort gate)": "high polyreactivity"}
{"sequence": "QVQIVVSGGGLVQAGGRRRLSCAASGRFFWVYAMGWYRQAPGKERELVAAISRSGGITSYADSVKGRYTISRDNANYTVYLQMNSLKPEDTAVYCCAARSYFDGFYYWGQGAQVTVSS", "polyreactivity (PSR sort gate)": "high polyreactivity"}
{"sequence": "QVQLAESGGGLVQAGGSLRLSCAASGRIFSGYAMGWSRQAPGKERELVAAITSVGSTNYADSVKGRFTISRDNAKNTVYLQMNSLKPEDTAVYYCAAKFVRPYRMYYWGQGTQVTVSS", "polyreactivity (PSR sort gate)": "high polyreactivity"}
{"sequence": "QVQLAESGGGLVQAGGSLRLSCAASGRTFNLYAMGWYRQAPGKERELVASISSGGSTYYADSVKGRFTISRDNAKNTVYLQMNSLIPEDTAVYYCAARLAYGPRPMPSYEYYYWGQGTQVTVSS", "polyreactivity (PSR sort gate)": "low polyreactivity"}
{"sequence": "QVQLAESGGGLVQAGGSLRLSCAASGSIFRLNAMGWYRQAPGKERELVAAINSGTNTYYADSVKGRFTISRDNAKNTVYLQMNSLKPEDTAVYYCAADWNDWHYDYWGQGTQVTVSS", "polyreactivity (PSR sort gate)": "low polyreactivity"}
{"sequence": "QVQLAESGGGLVQAGGSLRLSCAASGSIFRLNAMGWYRQAPGKERELVAAINSGTNTYYADSVKGRFTISRDNAMNTVYLQMNSLKPEDTAVYYCAADWNDWHYDYWGQGTQVTVSS", "polyreactivity (PSR sort gate)": "low polyreactivity"}
{"sequence": "QVQLAESGGGLVQAGGSLRLSCAASGSILFNMGWYRQAPGKERELVAAIRYGGGRTYYADSVKGRFTISRDNAKNTVYLQMNSLKPEDTAVYYCAAPYKRNAGFDYWGQGTQVTVSS", "polyreactivity (PSR sort gate)": "low polyreactivity"}
{"sequence": "QVQLEDSGGGLLQAGGSLRLSCAASGRILYLYTMGWYRQAPGKERELVAAISRGGSTYYADSVKGRFTISRDNAKNTVYLQMNSLNPEDTAVYYCSADARGYQFNYWGQGTQVTVSS", "polyreactivity (PSR sort gate)": "high polyreactivity"}
{"sequence": "QVQLEDSGGGLVQAGGSLRLSCAASGFTFSYNAMGWYIQAPGKERELVAAISSRGTSTYYADSVKGRFTISRDNAKNTVYLQMNSLKPEDTAVYYCNTVPYFYLTFYPHYDYWGQGTQVTVSS", "polyreactivity (PSR sort gate)": "high polyreactivity"}
{"sequence": "QVQLEDSGGGLVQAGGSLRLSCAASGRIFYTYAMGWYRQAPGKERELVAAINRSGSSTYYADSVKGRFTISRDNAKNNVYLQMNSLKPEDTAVYYCNAQSYLYYGWVLTDVDYWGQGTQVTVSS", "polyreactivity (PSR sort gate)": "low polyreactivity"}
{"sequence": "QVQLEDSGGGLVQAGGSLRLSCAASGRTFPYKAMGWYRQAPGKERELVAAITSSGGSTYYADSVKGRFTISRDNAKNTVYLQMNSLKPEDTAVYYCAKGYYSPNYYYWGQGTQVTVSS", "polyreactivity (PSR sort gate)": "high polyreactivity"}
{"sequence": "QVQLEDSGGGLVQAGGSLRLSCAASGRTLYLYAMGWYRQAPGKERELVAAIDWRGTSTYYADSVKGRFTISRDNAKNTVYLEMNSLKPEDTAVYYCNARFRSYLRWYQRDYWGQGTKVTVSS", "polyreactivity (PSR sort gate)": "low polyreactivity"}
{"sequence": "QVQLEDSGGGLVQAGGSLRLSCAASGSIFATNAMGWYRQGPGKERELVAAISRSGASTYYADSVKGRFTISRDNAKNTVYLQMNRLKPEDTAVYYCNKVLYRDAYHSYGFEYWGQGTQVTVSS", "polyreactivity (PSR sort gate)": "high polyreactivity"}
{"sequence": "QVQLEDSGGGLVQAGGSLRLSCAASGSTFILNAMGWYRDAPGKERELVATISSSDTSTYYADSVKGRFTISRDNAKNTVYLQMNSLKPEDTAVYYCNADYYTTSYLQRVYHYGVEYDYWGQGTQVTVSS", "polyreactivity (PSR sort gate)": "low polyreactivity"}
{"sequence": "QVQLEDSGGGLVQAGGTHSLSCAASGFTFARNTMGWYRQAPGKERELVAAISWRGGRTYYADSVTGRFTISRDNAKNTDYLQMNRLKPEDRAVYYCNGVILKLGDALYDYWGEGTQVTVSS", "polyreactivity (PSR sort gate)": "high polyreactivity"}
{"sequence": "QVQLEDSGGGLVQAGVSLRLSSDASGSTIAGYVMGWYRQAPGKERELVAAISRSGGSTYYADSVKGRFTISRDNEKNTVYLQMNSLKPEDTAVYYCASRNSPGFPGDYWGQGSQVTVSS", "polyreactivity (PSR sort gate)": "high polyreactivity"}
{"sequence": "QVQLEDSLGGLVQAGGSLRLSCAASGGIFGLYDMGWYRQEPGKERELVAAISWSGGDTYYADSVKGRFTISRDNAKNTVYLQMNSLKPEDTAVYYCAADTYYYSGYEYDYWGQGTQVTVSS", "polyreactivity (PSR sort gate)": "high polyreactivity"}
{"sequence": "QVQLEDSRVGLVQAVGILRLSCASSGSTIDDNVMGWYRQAPRNERELVAAICSSGGSPYYADSVKGRFTISRDNAKNTDYLLMNSLKPEDTAVYYCNAVYFRLWGYYDRRSYNYWGQGTQVTVSS", "polyreactivity (PSR sort gate)": "low polyreactivity"}
{"sequence": "QVQLEEAVGGLLQAGGSLRFSCAASGGLFWVYAMGRYRQAPGKERELVAAISNSDTSTSYADSVKGRFTISRDNAQNTVYLQMNSLKAEDTAVYYCKADSPSLSGDSWGQGTQVNVSS", "polyreactivity (PSR sort gate)": "low polyreactivity"}
{"sequence": "QVQLEESAGGLVQAGGSLRLSCAASGLTFNYYAMGWYRQAPGKERELVAAITGRGGSTYYADSVKGRFTISRDNAKNTVYLQMNSLKPEDTAVYYCAADGGTRGYDYWGQGTQVTVSS", "polyreactivity (PSR sort gate)": "low polyreactivity"}
{"sequence": "QVQLEESGAALVQAGGSLRLSCAAMGWYRQSPGKERELLATITWSGGSTYYADSVKGRFTISRDNAKNTVYLQMNSLKPEDTAVYYCTARATLLSPANTIRGYDYWGQGTQVTVSS", "polyreactivity (PSR sort gate)": "low polyreactivity"}
{"sequence": "QVQLEESGGGFVQAGGRLRLSCAASGSIFQAYFMGWYRQAPGKERELVADISRSGGRTYYADSVKGRFTISRDNAKNTVYLQMNSLKPEDTGVYYCAADWRHLLYRGGLQYEYWGQGTQVTVSS", "polyreactivity (PSR sort gate)": "high polyreactivity"}
{"sequence": "QVQLEESGGGFVQAGGSLRLSCAASGYIFFPHAMGWYRQATWKERELVAAINSRGASTYYADSVKGRFTISRDNAKNTVSLQMNSLKPVDTAVYYCAKGSGLHIYHYYGVPYDYWGQGTQVTVSS", "polyreactivity (PSR sort gate)": "low polyreactivity"}
{"sequence": "QVQLEESGGGIVQAGGSLRLSCAASGSTFRKYAMRWYRQAPGKERDFVAAITWSTGTTYYADSVKGRFTISRDNAKNTVYLQMNSLKPEDTAVYFCAADSQPPHELYESIEHESWGQGTQVTVSS", "polyreactivity (PSR sort gate)": "low polyreactivity"}
{"sequence": "QVQLEESGGGLDQAGGSLRLSCAASGLILDYNDIGGYRQAAGQERELVASITGGGSTYYADSVKGRFRISRDNAKNTVYLQMNSLKPQDTSVYSCNADPVGVYCFDLDYWGQGTQVTVSS", "polyreactivity (PSR sort gate)": "low polyreactivity"}
{"sequence": "QVQLEESGGGLDQAGGSLRLSCAASGRTLATYAMGWYRQAPGKERELVAAISSSGTRTYYADSVKGRFTISRDNAKNTVYFQMNSLNPEDTAVYYCNAGPGYDYWGQGTQLTVSS", "polyreactivity (PSR sort gate)": "high polyreactivity"}
{"sequence": "QVQLEESGGGLFQAGGSLRLICAATGSIFRVYVMGWYIQAPGKERELVAAITSSDGTTYYADSVKGRFTISRDNAKNTVYLQMNSLKPEDTALYYCNAEFYSPPVVGPRYWYPGFYWGQGTQVTVSS", "polyreactivity (PSR sort gate)": "low polyreactivity"}
{"sequence": "QVQLEESGGGLFQAGGSLRLSCAASGSTFADNAMGWYRQATGKEAEFVAGISTNGGSTYYADSVKGRFTISRDNAKNTVYLQMNSLKPEDTAVYYCNADSIDPFLYDYWGQGTQVTVSS", "polyreactivity (PSR sort gate)": "low polyreactivity"}
{"sequence": "QVQLEESGGGLRQAGGRLRLSCAASGRTFYVNAKGWYRQAPGKERELVAAISWSGGSTYYADSVKGRFTITRDNAKNTVYLQMNSLKPEDTAVYYCAAEDIEVYEYWGQGTQVTVSS", "polyreactivity (PSR sort gate)": "low polyreactivity"}
